In US6541254B1, “Glycosylation variants of iduronate 2-sulfatase” (Women's and Children's Hospital, priority 1991, dated 2003):

What was measured:
[1] = test system: MPS II skin fibroblasts (SF-635); assay: Subcellular fractionation of rIDS-treated cells on Percoll density gradients; type: cell-based, human; conditions: corrected MPS II cells; Percoll gradient of post-nuclear supernatant
Protocol: Cells from SF-635 were grown to confluency in 75 cm^2 flasks and then exposed to medium supplemented with 5×10^4 pmol/min per ml rIDS. The cells were incubated for 72 h then harvested and fractionated on Percoll density gradients as described in Anson el al (27). The resulting gradient was collected in 1.0 ml fractions by bottom puncture and the fractions analysed for IDS and β-hexosaminidase activity.

MPS II cells (SF-1779) = assay: Endocytosis of rIDS with or without mannose-6-phosphate; type: cell-based, human; conditions: rIDS at 5×10^4 and 5×10^3 pmol/min per ml, 5 mM mannose-6-phosphate
Protocol: Cells from SF-1779 were plated in 20 wells (3.83 cm^2) and allowed to reach confluency. Wells 1 to 4 were untreated controls. To each of wells 5 to 12 and 13 to 20 was added 1.0 ml of medium containing rIDS at 5×10^4 pmol/min per ml and 5×10^3 pmol/min per ml respectively. In addition the medium in wells 9 to 12 and 17 to 20 was made 5 mM mannose-6-phosphate. The cells were then incubated for 6 hours after which time they were rinsed with medium and fresh medium added. The cells were incubated overnight and then harvested, washed and lysed as described above. The cell lysates were dialysed against 5 mM-sodium acetate, pH 4.0, for 16 h at 4° C. and then analysed for IDS activity and total protein.

[2] = Chromatofocusing on PBE94; type: physicochemical; conditions: majority of rIDS (pool B)
Protocol: The rIDS was purified from the collected medium by a 3-step column procedure. The medium was dialysed overnight at 4° C. against 30 mM-Tris/HCl, pH 7.0/10% v/v glycerol/0.1 mM-DTE/3 mM-NaN3 (buffer A) and was applied to a PBE94 column (8 cm×1.5 cm) equilibrated in buffer A (flow-rate 1.0 ml/min) and then washed with 100 ml of buffer A. Bound proteins were […] with polybuffer 74 that had been diltured 1:18 with water, the pH adjusted to 4.0 with HCl and the solution made 10% v/v in glycerol, 0.1 mM-DTE and 3 mM-NaN3. The column was further eluted with 100 ml 15 mM-ditheriothreitol/3 mM-NaN3 (buffer B). The rIDS eluted in buffer B was applied at a flow-rate of 1.0 ml/min to a Blue A agarose column (6 cm×0.7 cm) also equilibrated in buffer B. The rIDS activity from this step was applied in 1.0 ml volumes to an LKB Ultrachrom GTi f.p.l.c. system with a TSK G3000SW Ultrapac column (30 cm×0.8 cm) equilibrated and eluted in buffer B at a flow-rate of 0.5 ml/min and pressure of 150 kPa. Fractions containing rIDS activity were pooled and analysed under denaturing and non-denaturing condition on SDS-PAGE (10% w/v acrylamide) to estimate apparent subunit size. […] Native molecular mass was determined using the f.p.l.c. system as described elsewhere (3) Kinetic (Km, V max, pH optima) and inhibition data were obtained as previously described (3).

[3] = Catalytic properties of IDS with radiolabelled disaccharide substrate; type: biochemical; conditions: for Specific Activity / pH Optimum: IdoA2S-anM6S substrate; for Km / Vmax: IdoA2S-anM6S, 50 mM sodium acetate pH 4.5, 500 μg/ml BSA
Protocol: (§1) Media samples, or cell lysates prepared by six cycles of freeze/thaw in 0.5 M-NaCl/20 mM-Tris/HCl, pH 7.0, were clarified by microcentrifugation (12,000×g, 4° C., 5 min) and were either assayed directly or after dilution in assay buffer. […] IDS was assayed using the radiolabelled disaccharide substrate IdoA2S-anM6S (3). Protein estimations were according to the method of Lowry et al (29).
The rIDS was purified from the collected medium by a 3-step column procedure. The medium was dialysed overnight at 4° C. against 30 mM-Tris/HCl, pH 7.0/10% v/v glycerol/0.1 mM-DTE/3 mM-NaN3 (buffer A) and was applied to a PBE94 column (8 cm×1.5 cm) equilibrated in buffer A (flow-rate 1.0 ml/min) and then washed with 100 ml of buffer A. Bound proteins were […] with polybuffer 74 that had been diltured 1:18 with water, the pH adjusted to 4.0 with HCl and the solution made 10% v/v in glycerol, 0.1 mM-DTE and 3 mM-NaN3. The column was further eluted with 100 ml 15 mM-ditheriothreitol/3 mM-NaN3 (buffer B). The rIDS eluted in buffer B was applied at a flow-rate of 1.0 ml/min to a Blue A agarose column (6 cm×0.7 cm) also equilibrated in buffer B. The rIDS activity from this step was applied in 1.0 ml volumes to an LKB Ultrachrom GTi f.p.l.c. system with a TSK G3000SW Ultrapac column (30 cm×0.8 cm) equilibrated and eluted in buffer B at a flow-rate of 0.5 ml/min and pressure of 150 kPa. Fractions containing rIDS activity were pooled and analysed under denaturing and non-denaturing condition on SDS-PAGE (10% w/v acrylamide) to estimate apparent subunit size. Gels were stained with either Gradipure Colloidal Electrophoresis Gel Stain (Gradipure, Pyrmont, NSW) or silver stained accordinng to the method of Merril et al (32). Native molecular mass was determined using the f.p.l.c. system as described elsewhere (3) Kinetic (Km, V max, pH optima) and inhibition data were obtained as previously described (3).
Although both the liver and rIDS show a similar Km towards the disaccharide substrate (IdoA2S-anM6S) in the standard assay (50 mM sodium acetate pH 4.5 and 500 μg/ml BSA) they have a substantially different V max. […] Alternatively, this may reflect a difference between enzyme produced in CHO cells and in liver. Both the (CHO) recombinant and (liver) mature form of the enzyme have similar pH optima and specific activities (Table 2).

[4] = test system: MPS II fibroblasts (SF-635 and SF-1779); assay: Correction of MPS II fibroblasts by rIDS; type: cell-based, human; conditions: for 35S-cpm/mg Cell Protein / β-Hexosaminidase activity in cell lysate / IDS activity in cell lysate: 5 × 10^4 pmol/min per ml rIDS, 72 hours; for IDS activity in cell lysate: undialysed lysate
Protocol: Human diploid fibroblasts were established from skin biopsies submitted to this hosptial for diagnosis (28). Cell lines were maintained according to established procedures in BME, 10% v/v FCS and antibiotics unless otherwise stated. The two MPS II skin fibroblast cell lines used in this study (SF-635 and SF-1779) both have low residual IDS activity.
as §1
The fluorogenic substrate 4-methylumbelliferyl-2-acetamido-2-deoxy-β-D-glucopyranoside was used to measure β-hexosaminidase activity (31).
For these experiments IDS was obtained from CHOEFI2S-9 cells cultured in CHO-SFM medium suppplemented with 10 mM-NH4C1 and antibiotics. […] Fibroblasts from a normal individual (SF-3409) and from two MPS II patients (SF-635 and SF-1779) were grown to confluency in 25 cm^2 flasks and radiolabelled with Na2^35SO4 as previously described (27). The labelled cells were then exposed to 5×10^4 pmol/min per ml of rIDS for 72 hours. After harvesting the cells by trypsin treatment and washing by centrifugation/resuspension in PBS, the cell pellet was resuspended in 100 μl of 20 mM-Tris/HCl, pH 7.0/0.5 M-NaCl, and the cell lysates prepared as described above. The cell extracts were analysed for IDS activity, total protein, β-hexosaminidase activity and radioactivity.

Molecule | Subcellular localisation of endocytosed enzyme [1] | Uptake of IDS activity in presence or absence of mannose-6-phosphate (MPS II cells (SF-1779)) | pI [2] | Specific Activity [3] | pH Optimum [3] | Km [3] | Vmax [3] | Clearance of stored 35S-labelled material ([4]; MPS II fibroblasts, rIDS at 5×10^4 pmol/min per ml) | IDS activity level above normal ([4]; SF635, rIDS at 5×10^4 pmol/min per ml) | IDS activity level above normal ([4]; SF1779, rIDS at 5×10^4 pmol/min per ml) | 35S-cpm/mg Cell Protein ([4]; SF-635 cells labelled with Na2 35SO4) | β-Hexosaminidase activity in cell lysate ([4]; SF-635 cells) | IDS activity in cell lysate ([4]; SF-635 cells) | 35S-cpm/mg Cell Protein ([4]; SF-1779 cells labelled with Na2 35SO4) | β-Hexosaminidase activity in cell lysate ([4]; SF-1779 cells) | IDS activity in cell lysate ([4]; SF-1779 cells) | Effect on activity of second lysosomal enzyme β-hexosaminidase ([4]; endocytosis of IDS in MPS II fibroblasts)
rIDS: Recombinant human iduronate 2-sulfatase, highly glycosylated, secreted by CHO-K1 clonal line CHOEFI2S-9 (protein) SETQANSTTDALNVLLIIVDDLRPSLGCYGDKLVRSPNIDQLASHSLLFQNAFAQQAVCAPSRVSFLTGRRPDTTRLYDFNSYWRVHAGNFSTIPQYFKENGYVTMSVGKVFHPGISSNHTDDSPYSWSFPPYHPSSEKYENTKTCRGPDGELHANLLCPVDVLDVPEGTLPDKQSTEQAIQLLEKMKTSASPFFLAVGYHKPHIPFRYPKEFQKLYPLENITLAPDPEVPDGLPPVAYNPWMDIRQREDVQALNISVPYGPIPVDFQRKIRQSYFASVSYLDTQVGRLLSALDDLQLANSTIIAFTSDHGWALGEHGEWAKYSNFDVATHVPLIFYVPGRTASLPEAGEKLFPYLDPFDSASQLMEPGRQSMDLVELVSLFPTLAGLAGLQVPPRCPVPSFHVELCREGKNLLKHFRFRDLEEDPYLPGNPRELIAYSQYPRPSDIPQWNSDKPSLKDIKIMGYSIRTIDYRYTVWVGFNPDEFLANFSDIHAGELYFVDSDPLQDHNMYNDSQGGDLFQLLMP | fractionated with the lysosomal enzyme β-hexosaminidase in the dense fraction of the gradient | uptake is mediated via the mannose-6-phosphate receptor | < 4.0 | 20.8 μmol/min per mg | 4.5 | 3 µM | 3.35 μmol/min per mg | clearance of this stored product to levels comparable to those seen in control fibroblasts | 80 fold | 40 fold | 9018 ± 1988 cpm/mg | 257 ± 14 nmol/min per mg | 1140 ± 50 pmol/min per mg | 5136 ± 502 cpm/mg | 118 ± 11 nmol/min per mg | 562 ± 99 pmol/min per mg | not affected
Liver IDS: Naturally glycosylated mature iduronate 2-sulfatase purified from human liver (protein, UniProt P22304 34-455; P22304 456-550, looked up, natural glycosylation, liver-purified, Naturally glycosylated mature iduronate 2-sulfatase purified from human liver) Iduronate 2-sulfatase 42 kDa …: TDALNVLLIIVDDLRPSLGCYGDKLVRSPNIDQLASHSLLFQNAFAQQAVCAPSRVSFLTGRRPDTTRLYDFNSYWRVHAGNFSTIPQYFKENGYVTMSVGKVFHPGISSNHTDDSPYSWSFPPYHPSSEKYENTKTCRGPDGELHANLLCPVDVLDVPEGTLPDKQSTEQAIQLLEKMKTSASPFFLAVGYHKPHIPFRYPKEFQKLYPLENITLAPDPEVPDGLPPVAYNPWMDIRQREDVQALNISVPYGPIPVDFQRKIRQSYFASVSYLDTQVGRLLSALDDLQLANSTIIAFTSDHGWALGEHGEWAKYSNFDVATHVPLIFYVPGRTASLPEAGEKLFPYLDPFDSASQLMEPGRQSMDLVELVSLFPTLAGLAGLQVPPRCPVPSFHVELCREGKNLLKHFRFRDLEEDPYLPG Iduronate 2-sulfatase 14 kDa …: NPRELIAYSQYPRPSDIPQWNSDKPSLKDIKIMGYSIRTIDYRYTVWVGFNPDEFLANFSDIHAGELYFVDSDPLQDHNMYNDSQGGDLFQLLMP |  |  |  | 11.9 μmol/min per mg | 4.5 | 4 µM | 80 μmol/min per mg |  |  |  |  |  |  |  |  |  | 
